Source: patent EP0980526B1, “INHIBITORS OF NUCLEAR PROTEIN/NUCLEAR RECEPTOR INTERACTION” (IMPERIAL CANCER RESEARCH TECHNOLOGY LIMITED, priority 1997, dated 1998)
One block for each substance: values may come before it.

How the values were obtained:
[1] = target: AAD-ER (acidic activation domain fused to the LBD of the wild-type ER) (human) (UniProt P03372); test: cell-based or functional assay
[2] = target: AAD-ER (acidic activation domain fused to the LBD of the wild-type ER) (human) (UniProt P03372); test: yeast two-hybrid
[3] = target: mouse ER (expressed in transfected Hela cells) (mouse) (UniProt P19785); test: cell-based or functional assay
Chain of mouse ER (expressed in transfected Hela cells) (mouse) (P19785 whole entry): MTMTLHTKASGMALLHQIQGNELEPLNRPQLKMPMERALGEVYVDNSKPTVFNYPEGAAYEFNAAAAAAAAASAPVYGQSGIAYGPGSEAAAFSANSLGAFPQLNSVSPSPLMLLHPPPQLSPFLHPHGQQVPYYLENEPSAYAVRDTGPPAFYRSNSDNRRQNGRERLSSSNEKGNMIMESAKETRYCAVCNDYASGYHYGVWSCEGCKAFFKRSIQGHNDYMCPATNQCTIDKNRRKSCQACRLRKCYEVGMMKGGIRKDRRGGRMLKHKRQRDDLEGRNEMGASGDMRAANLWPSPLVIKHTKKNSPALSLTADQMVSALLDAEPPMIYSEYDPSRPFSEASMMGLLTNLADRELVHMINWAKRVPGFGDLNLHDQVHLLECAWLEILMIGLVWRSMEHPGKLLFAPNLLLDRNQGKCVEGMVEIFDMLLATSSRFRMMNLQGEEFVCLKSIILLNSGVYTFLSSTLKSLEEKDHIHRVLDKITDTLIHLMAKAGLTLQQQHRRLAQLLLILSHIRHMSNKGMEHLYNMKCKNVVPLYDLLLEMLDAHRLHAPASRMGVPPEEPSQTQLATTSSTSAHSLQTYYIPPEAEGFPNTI

Chain of AAD-ER (acidic activation domain fused to the LBD of the wild-type ER) (human) (P03372 282-595 limits assumed): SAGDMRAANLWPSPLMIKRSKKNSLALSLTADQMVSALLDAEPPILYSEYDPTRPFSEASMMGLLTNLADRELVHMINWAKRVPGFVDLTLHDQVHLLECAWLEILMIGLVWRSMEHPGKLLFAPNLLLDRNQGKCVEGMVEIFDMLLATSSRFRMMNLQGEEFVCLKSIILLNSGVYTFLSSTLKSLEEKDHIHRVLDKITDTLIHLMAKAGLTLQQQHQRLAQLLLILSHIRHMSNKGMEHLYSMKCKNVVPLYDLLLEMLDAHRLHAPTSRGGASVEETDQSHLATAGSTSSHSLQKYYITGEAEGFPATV
Chain of DBD-SRC1a 45-53 (P03372 176-282, form in doubt): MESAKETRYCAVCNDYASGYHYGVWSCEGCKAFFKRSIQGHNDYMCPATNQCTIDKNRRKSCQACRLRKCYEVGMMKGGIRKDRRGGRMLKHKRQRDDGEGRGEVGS

Substance: DBD-RIP140 935-943 with valine 935 mutated to alanine (from UniProt P03372 176-282; P48552 935-943)
reporter activity in the presence of ligand (β-galactosidase, yeast two hybrid) (fold reduction) [1]: 10

Substance: DBD-SRC1a 45-53 (from UniProt P03372 176-282)
fold interaction (two-hybrid reporter) [2]: 6 fold

activity of ER on the reporter 2ERE-pS2-CAT in transiently transfected Hela cells [3]: < 50%
Substance: SRC1e M123 (from UniProt Q15788 1-1399)
